# Experimental data reported in paper PMC5713450.
# pKd: −log10 of the molar value.
# What was measured:
# [1] = biological target: Protein A (UniProt P02976); test: EIS; conditions: apparent; 2 mM ferri-/ferrocyanide; Hill h 1.14 +/- 0.15; 3' C6 spacer and thiol; immobilized on gold with MCH; BB: 100 mM NaCl, 20 mM Tris, 10 mM MgCl2, 5 mM KCl, 1 mM CaCl2, pH 7.6; MST in BBT (0.005% Tween 20) at 25 C, 2bind MST with 0.05% Tween 20; EIS in BB + 2 mM …
# [2] = biological target: Protein A (cited studies) (UniProt P02976); test: RIFTS; conditions: aptamer immobilized on porous silicon, h 2.61 +/- 0.69, 3' amino, BB: 100 mM NaCl, 20 mM Tris, 10 mM MgCl2, 5 mM KCl, 1 mM CaCl2, pH 7.6, MST in BBT (0.005% Tween 20) at 25 C, 2bind MST with 0.05% Tween 20, EIS in BB + 2 mM …; cited from earlier work
# [3] = biological target: Protein A (cited studies) (UniProt P02976); test: SPR; conditions: BB: 100 mM NaCl, 20 mM Tris, 10 mM MgCl2, 5 mM KCl, 1 mM CaCl2, pH 7.6, MST in BBT (0.005% Tween 20) at 25 C, 2bind MST with 0.05% Tween 20, EIS in BB + 2 mM …, cited from earlier work
# [4] = biological target: Protein A (cited studies) (UniProt P02976); test: ELONA; conditions: BB: 100 mM NaCl, 20 mM Tris, 10 mM MgCl2, 5 mM KCl, 1 mM CaCl2, pH 7.6; MST in BBT (0.005% Tween 20) at 25 C, 2bind MST with 0.05% Tween 20; EIS in BB + 2 mM …; cited from earlier work
# [5] = biological target: Protein A (UniProt P02976); test: MST; conditions: BB: 100 mM NaCl, 20 mM Tris, 10 mM MgCl2, 5 mM KCl, 1 mM CaCl2, pH 7.6, MST in BBT (0.005% Tween 20) at 25 C, 2bind MST with 0.05% Tween 20, EIS in BB + 2 mM …
# [6] = biological target: Protein A (cited studies) (UniProt P02976); test: MST; conditions: 5' thiol; BB: 100 mM NaCl, 20 mM Tris, 10 mM MgCl2, 5 mM KCl, 1 mM CaCl2, pH 7.6; MST in BBT (0.005% Tween 20) at 25 C, 2bind MST with 0.05% Tween 20; EIS in BB + 2 mM …; cited from earlier work
sequence,measurement,setting,value
"ATACCAGCTTATTCAATTAGCAACATGAGGGGGATAGAGGGGGTGGGTTCTCTCGGCT [PAA (PA#2/8[S1-58]), 3'-thiol on gold]",pKd,[1],7.73
"ATACCAGCTTATTCAATTAGCAACATGAGGGGGATAGAGGGGGTGGGTTCTCTCGGCT [PAA, 3'-amino]",pKd,[2],4.85
"ATACCAGCTTATTCAATTAGCAACATGAGGGGGATAGAGGGGGTGGGTTCTCTCGGCT [PAA, 3'-biotin]",pKd,[3],6.54
same,pKd,[4],7.95
"ATACCAGCTTATTCAATTAGCAACATGAGGGGGATAGAGGGGGTGGGTTCTCTCGGCT [PAA, 3'-fluorescent]",pKd,"[5]; BB + 0.05% Tween 20 (2bind), 3' C6 spacer, thiol",6.96
same,pKd,"[5]; BBT + 2 mM ferri-/ferrocyanide, 3' C6 spacer, thiol",7.79
same,pKd,"[5]; BBT, 0.005% Tween 20, no ferri-/ferrocyanide, 3' C6 spacer, thiol",7.65
"ATACCAGCTTATTCAATTAGCAACATGAGGGGGATAGAGGGGGTGGGTTCTCTCGGCT [PAA, 5'-biotin]",pKd,[4],7.63
"ATACCAGCTTATTCAATTAGCAACATGAGGGGGATAGAGGGGGTGGGTTCTCTCGGCT [PAA, 5'-fluorescent]",pKd,[3]; 5' thiol,5.72
same,pKd,"[5]; BB + 0.05% Tween 20 (2bind), 5' thiol",6.94
same,pKd,[6],7.02
